B1: ATGL (PNPLA2, patatin-like phospholipase domain-containing protein 2), human, full length / CIDEC (FSP27), human (parent)
chain 1: MFPREKTWNISFAGCGFLGVYYVGVASCLREHAPFLVANATHIYGASAGALTATALVTGVCLGEAGAKFIEVSKEARKRFLGPLHPSFNLVKIIRSFLLKVLPADSHEHASGRLGISLTRVSDGENVIISHFNSKDELIQANVCSGFIPVYCGLIPPSLQGVRYVDGGISDNLPLYELKNTITVSPFSGESDICPQDSSTNIHELRVTNTSIQFNLRNLYRLSKALFPPEPLVLREMCKQGYRDGLRFLQRNGLLNRPNPLLALPPARPHGPEDKDQAVESAQAEDYSQLPGEDHILEHLPARLNEALLEACVEPTDLLTTLSNMLPVRLATAMMVPYTLPLESALSFTIRLLEWLPDVPEDIRWMKEQTGSICQYLVMRAKRKLGRHLPSRLPEQVELRRVQSLPSVPLSCAAYREALPGWMRNNLSLGDALAKWEECQRQLLLGLFCTNVAFPPEALRMRAPADPAPAPADPASPQHQLAGPAPLLSTPAPEARPVIGALGL
chain 2: MEYAMKSLSLLYPKSLSRHVSVRTSVVTQQLLSEPSPKAPRARPCRVSTADRSVRKGIMAYSLEDLLLKVRDTLMLADKPFFLVLEEDGTTVETEEYFQALAGDTVFMVLQKGQKWQPPSEQGTRHPLSLSHKPAKKIDVARVTFDLYKLNPQDFIGCLNVKATFYDTYSLSYDLHCCGAKRIMKEAFRWALFSMQATGHVLLGTSCYLQQLLDATEEGQPPKGKASSLIPTCLKILQ
B2: ATGL (PNPLA2, patatin-like phospholipase domain-containing protein 2), human, full length / perilipin-5, mouse (mPlin5) (parent)
chain 1: B1 chain 1
chain 2: MDQRGEDTTLAPHSRMSGDQTAQDPGSSLGELDQQNVVNRVVALPLVKATCTAVSSAYNSAKDRHPLLGSACRLAEHCVCSVTTCALDHAQPLLEHLQPQLATVNDLACRGLDKLEEKLPFLQQPSDMVVTSAKDTVAKSVTGMVDLAQRGRRWSGELRRSMSQAMDMVLGKSEKLVDRFLPMTEAELAVLAAEAEGPEVGTVEEQRQQQGYFVRLGSLSARLRHLAYEHSLGKLRQSKHRTQEMLAQLQETLELIQHMQRGASPSPTFHPPKTQELWGSWSPCLENGRSHSEVELETLALSRSLTLELQNAVDALAGCVRGLPPSAQAKVAEVQRSVDALQATFADAHCLGDVAPTALAEGRGSVARAHACVDEFLDLVLRAMPLPWLVGPFAPILVEQSEPLINLATCVDEVVGDPDPRWAHMDWPAQKRAWEAESADPGGQEAEPPRGQGKHTMMPELDF

Variants of: B1
Assay: LUMIER: Protein A-ATGL variant and firefly luciferase-partner co-expressed in HEK293T, lysates immunoprecipitated on IgG-coated plates, co-precipitated partner measured as luciferase luminescence
Conditions: with CIDEC (FSP27), transient co-transfection, IgG-coated LUMITRAC plates, 2 h at 4 °C, three PBS washes, Bright-Glo luciferase reagent, triplicates per assay, two …, parent: 0.17, not graded, scale: log2 fold change of co-immunoprecipitated luminescence relative to wild-type ATGL within each experiment

Variant | screen value
chain 1 P258L | -0.89
chain 1 G59L | 0.339
chain 1 L178A | -0.204
chain 1 P156K | -0.723
chain 1 L159A | -0.648
chain 1 R113L | -0.719
chain 1 R113K | -0.11
chain 1 E125L | -0.231
chain 1 G16K | 0.534
chain 1 P86K | 0.081
chain 1 Q140K | -0.161
chain 1 Q140A | 0.722
chain 1 G189E | -0.952
chain 1 R351L | -0.353
chain 1 T41A | 0.105
chain 1 L62K | -0.0341
chain 1 L62A | -0.111
chain 1 K92L | -0.0227
chain 1 E314A | -0.691
chain 1 G66A | -0.0355
chain 1 K275A | -0.673
chain 1 A434L | -0.034
chain 1 I70A | -0.118
chain 1 I70K | -0.434
chain 1 S158E | -0.309

Next, values leading:

screen value | Variant
0.00149 | chain 1 F35A
-0.223 | chain 1 E368A
-0.411 | chain 1 Y415A
-0.241 | chain 1 P103K
-0.0915 | chain 1 R95K
-0.169 | chain 1 R95L
0.652 | chain 1 R163K
-0.0649 | chain 1 A104E
0.201 | chain 1 R329E
-0.478 | chain 1 S87E
-0.0562 | chain 1 S87A
-0.57 | chain 1 G153K
-0.268 | chain 1 G153A
0.0352 | chain 1 Q396A
-0.166 | chain 1 V127L
0.129 | chain 1 N39E
-0.409 | chain 1 F348E
0.197 | chain 1 G66L
-0.713 | chain 1 L261E
-0.128 | chain 1 L102K
-0.0703 | chain 1 S106K
-0.128 | chain 1 S158A

Same assay, conditions: with CIDEC (FSP27), transient co-transfection, IgG-coated LUMITRAC plates, 2 h at 4 °C, three PBS washes, Bright-Glo luciferase reagent, triplicates per assay, two …, parent: 0.24, not graded, scale: log2 fold change of co-immunoprecipitated luminescence relative to wild-type ATGL within each experiment

Variant | screen value
chain 1 P258L | -0.788
chain 1 G59L | -0.00561
chain 1 L178A | -0.645
chain 1 P156K | -0.374
chain 1 L159A | 0.00161
chain 1 R113L | 0.537
chain 1 R113K | 0.829
chain 1 E125L | -0.238
chain 1 G16K | 0.954
chain 1 P86K | -0.642
chain 1 Q140K | 0.485
chain 1 Q140A | 0.0209
chain 1 G189E | -0.896
chain 1 R351L | -0.407
chain 1 T41A | -0.176
chain 1 L62K | 0.845
chain 1 L62A | -0.17
chain 1 K92L | 0.785
chain 1 E314A | -0.29
chain 1 G66A | -0.0837
chain 1 K275A | -0.64
chain 1 A434L | 0.729
chain 1 I70A | -0.628
chain 1 I70K | -0.623
chain 1 S158E | -0.238

The remaining lines, values ahead:

screen value | Variant
-0.0902 | chain 1 F35A
-0.54 | chain 1 E368A
-0.266 | chain 1 Y415A
-0.421 | chain 1 P103K
-0.656 | chain 1 R95K
0.507 | chain 1 R95L
0.0551 | chain 1 R163K
-0.317 | chain 1 A104E
-0.13 | chain 1 R329E
-0.728 | chain 1 S87E
-0.798 | chain 1 S87A
-0.174 | chain 1 G153K
0.00164 | chain 1 G153A
-0.182 | chain 1 Q396A
-0.0792 | chain 1 V127L
-0.0276 | chain 1 N39E
-0.389 | chain 1 F348E
-0.656 | chain 1 G66L
-0.796 | chain 1 L261E
-0.319 | chain 1 L102K
-0.113 | chain 1 S106K
0.0569 | chain 1 S158A

Variants of: B2
Assay: as above
Conditions: with perilipin-5, mouse (mPlin5), transient co-transfection, IgG-coated LUMITRAC plates, 2 h at 4 °C, three PBS washes, Bright-Glo luciferase reagent, triplicates per assay, two …, parent: 0.15, not graded, scale: log2 fold change of co-immunoprecipitated luminescence relative to wild-type ATGL within each experiment

Variant | screen value
chain 1 G66L | -0.614
chain 1 S87E | -0.403
chain 1 S87A | -0.249
chain 1 P86K | -1.17
chain 1 S158E | -0.0461

More lines, now with the values ahead:

screen value | Variant
-0.448 | chain 1 G66A
0.0372 | chain 1 T41A
-0.363 | chain 1 S106K
-0.313 | chain 1 F35E
-0.563 | chain 1 F35A
0.0215 | chain 1 E314A

Same assay, conditions: with perilipin-5, mouse (mPlin5), transient co-transfection, IgG-coated LUMITRAC plates, 2 h at 4 °C, three PBS washes, Bright-Glo luciferase reagent, triplicates per assay, two …, parent: 0.46, not graded, scale: log2 fold change of co-immunoprecipitated luminescence relative to wild-type ATGL within each experiment

Variant | screen value
chain 1 G66L | -0.664
chain 1 S87E | -0.318
chain 1 S87A | -0.228
chain 1 P86K | -1.16
chain 1 S158E | 0.172

Continued, values first:

screen value | Variant
0.0231 | chain 1 G66A
0.0895 | chain 1 T41A
-0.539 | chain 1 S106K
-0.0352 | chain 1 F35E
-0.0452 | chain 1 F35A
0.421 | chain 1 E314A

— paper PMC10958042
